The values below come from the RNAGym collection of RNA variant scans (doi:10.1038/ncomms11558).

Sequences and labels used below:
B1: mRNA-splicing (parent)
chain: GAUCCAGAUCUAACUUGGGGUGGCUUUGUCUUCUUCUUUUGCCAAUUCCACUAAUUGUUUGGG

In this data set the parent is B1. The data set is described as follows: exon inclusion enrichment score (log2 ratio to wild type); higher = more inclusion; FAS exon 6 minigene, HEK293.
GAUCCAGAUCUAACUUGGGGUGGCUUUGUCUUCUUCUUUUACCAAUUCCACUAAUUGUUUGGG: the “exon inclusion enrichment score” value was -0.772.
GAUCCAGAUCUAACUUGGGGUGGCUUUGUCUUCUUCUUUUCCCAAUUCCACUAAUUGUUUGGG: the “exon inclusion enrichment score” value was -1.66.
Consider GAUCCAGAUCUAACUUGGGGUGGCUUUGUCUUCAUCUUUUGCCAAUUCCACUAAUUGUUUGGG, for which the “exon inclusion enrichment score” value was -0.179.
Then GAUCCAGAUCUAACUUGGGGUGGCUUUGUCUUCCUCUUUUGCCAAUUCCACUAAUUGUUUGGG, with -0.17.
As for GAUCCAGAUCUAACUUGGGGUGGCUUUGUCUUCGUCUUUUGCCAAUUCCACUAAUUGUUUGGG, the figure is 0.283.
As for GAUCCAGAUCUAACUUGGGGUGGCUUUGUCUUCUUCUUUUGCCAAUUCCACUAUUUGUUUGGG, the figure is -0.013; as for GAUCCAGAUCUAACUUGGGGUGGCUUUGUCUUCUUCUUUUGCCAAUUCCACUAGUUGUUUGGG, -0.319; as for GAUCCAGAUCUAACUUGGGGUGGCUUUGUCUUCUUCUUUUGCCAAUUCCACUACUUGUUUGGG, 0.187.
Take GAUCCAGAUCUAACUUGGGGUGGCUUUGUCUUCUUCUUUUGCCCAUUCCACUAAUUGUUUGGG: the “exon inclusion enrichment score” value is -0.731.
Regarding GAUCCAGAUCUAACUUGGGGUGGCUUUGUCUUCUUCUUUUGCCUAUUCCACUAAUUGUUUGGG, the “exon inclusion enrichment score” value was -1.32.
Consider GAUCCAGAUCUAACUUGGGGUGGCUUUGUCUUCUUCUUUUGCCGAUUCCACUAAUUGUUUGGG, for which the “exon inclusion enrichment score” value was 0.314.
Then GAUCCAGAUCUAACUUGGGGUGGCUUUGUCUUCUUCUUUUGCGAAUUCCACUAAUUGUUUGGG, with 0.061.
As for GAUCCAGAUCUAACUUGGGGUGGCUUUGUCUUCUUCUUUUGCAAAUUCCACUAAUUGUUUGGG, the figure is -0.47; as for GAUCCAGAUCUAACUUGGGGUGGCUUUGUCUUCUUCUUUUGCUAAUUCCACUAAUUGUUUGGG, -2.69; as for GAUCCAGAUCUAACUUGGGGUGGCUUUGUCUUCUACUUUUGCCAAUUCCACUAAUUGUUUGGG, -0.045.
Then GAUCCAGAUCUAACUUGGGGUGGCUUUGUCUUCUGCUUUUGCCAAUUCCACUAAUUGUUUGGG, with 0.167.
Take GAUCCAGAUCUAACUUGGGGUGGCUUUGUCUUCUCCUUUUGCCAAUUCCACUAAUUGUUUGGG: the “exon inclusion enrichment score” value turned out to be 0.127.
Then GAUCCAGAUCUAACUUGGGGUGGCUUUGUCUUCUUCUUUUGCCAAUUCCACUAAGUGUUUGGG, with 0.117; and GAUCCAGAUCUAACUUGGGGUGGCUUUGUCUUCUUCUUUUGCCAAUUCCACUAAAUGUUUGGG, with 0.386.
For the variant GAUCCAGAUCUAACUUGGGGUGGCUUUGUCUUCUUCUUUUGCCAAUUCCACUAACUGUUUGGG, the “exon inclusion enrichment score” value was determined as 0.069.
Then GAUCCAGAUCUAACUUGGGGUGGCUUUGUCUUCUUCUUUUGCCAAUUGCACUAAUUGUUUGGG, with -1.23; and GAUCCAGAUCUAACUUGGGGUGGCUUUGUCUUCUUCUUUUGCCAAUUUCACUAAUUGUUUGGG, with -2.35; and GAUCCAGAUCUAACUUGGGGUGGCUUUGUCUUCUUCUUUUGCCAAUUACACUAAUUGUUUGGG, with -1.74.
Take GAUCCAGAUCUAACUUGGGGUGGCUUUGUCUUCUUCUUUUGCCAAUUCCACUAAUAGUUUGGG: the “exon inclusion enrichment score” value is -0.713.
Then GAUCCAGAUCUAACUUGGGGUGGCUUUGUCUUCUUCUUUUGCCAAUUCCACUAAUGGUUUGGG, with 0.059; and GAUCCAGAUCUAACUUGGGGUGGCUUUGUCUUCUUCUUUUGCCAAUUCCACUAAUCGUUUGGG, with 0.215; and GAUCCAGAUCUAACUUGGGGUGGCUUUGUCUUCUUCUUUUGUCAAUUCCACUAAUUGUUUGGG, with -1.2.
On to GAUCCAGAUCUAACUUGGGGUGGCUUUGUCUUCUUCUUUUGGCAAUUCCACUAAUUGUUUGGG, for which the “exon inclusion enrichment score” value was -0.175.
Then GAUCCAGAUCUAACUUGGGGUGGCUUUGUCUUCUUCUUUUGACAAUUCCACUAAUUGUUUGGG, with -0.179; and GAUCCAGAUCUAACUUGGGGUGGCUUUGUCUUCUUCUUUUGCCAAUUCCACUAAUUAUUUGGG, with -0.066; and GAUCCAGAUCUAACUUGGGGUGGCUUUGUCUUCUUCUUUUGCCAAUUCCACUAAUUCUUUGGG, with -0.537.
For GAUCCAGAUCUAACUUGGGGUGGCUUUGUCUUCUUCUUCUGCCAAUUCCACUAAUUGUUUGGG, the “exon inclusion enrichment score” value amounted to 0.236.
Take GAUCCAGAUCUAACUUGGGGUGGCUUUGUCUUCUUCUUAUGCCAAUUCCACUAAUUGUUUGGG: the “exon inclusion enrichment score” value worked out at 0.361.
On to GAUCCAGAUCUAACUUGGGGUGGCUUUGUCUUCUUCUUGUGCCAAUUCCACUAAUUGUUUGGG, for which the “exon inclusion enrichment score” value stood at 0.267.
Then GAUCCAGAUCUAACUUGGGGUGGCUUUGUCUUCUUCUUUUGCCAAUUCUACUAAUUGUUUGGG, with -0.226; and GAUCCAGAUCUAACUUGGGGUGGCUUUGUCUUCUUCUUUUGCCAAUUCGACUAAUUGUUUGGG, with 0.869; and GAUCCAGAUCUAACUUGGGGUGGCUUUGUCUUCUUCUUUUGCCAAUUCAACUAAUUGUUUGGG, with 1.46.
Then GAUCCAGAUCUAACUUGGGGUGGCUUUGUUUUCUUCUUUUGCCAAUUCCACUAAUUGUUUGGG, with -2.3; and GAUCCAGAUCUAACUUGGGGUGGCUUUGUGUUCUUCUUUUGCCAAUUCCACUAAUUGUUUGGG, with -0.286.
Regarding GAUCCAGAUCUAACUUGGGGUGGCUUUGUAUUCUUCUUUUGCCAAUUCCACUAAUUGUUUGGG, the “exon inclusion enrichment score” value is -0.973.
For the variant GAUCCAGAUCUAACUUGGGGUGGCUUUGUCUUCUUCUUUUGCCAUUUCCACUAAUUGUUUGGG, the “exon inclusion enrichment score” value was -1.33.
For the variant GAUCCAGAUCUAACUUGGGGUGGCUUUGUCUUCUUCUUUUGCCAGUUCCACUAAUUGUUUGGG, the “exon inclusion enrichment score” value was -0.008.
As for GAUCCAGAUCUAACUUGGGGUGGCUUUGUCUUCUUCUUUUGCCACUUCCACUAAUUGUUUGGG, the figure is -3.69.
